Reference: the supplement of paper PMC10567573

B1: KCNAB2 (parent)
chain: SSIIHEIDSILGNKPYSKKDYRS

Variants of: B1
Assay: protein stability index of a GFP-peptide fusion (GPS, HEK-293T) (PSI 1-6); higher = more stable
Settings: c terminus: native
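Note: lentivirally expressed fusions sorted by FACS into six bins by GFP to DsRed ratio, PSI derived from sequencing read proportions per bin multiplied by bin number.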

Protein stability index, by site and new letter:
S23: Y 3.02, E 4.19, H 4.09, V 3.68, T 4.17, M 3.96, A 3.37, P 3.8, L 3.9, G 2.56, N 4.49, R 2.18, K 4.33, W 2.72, Q 3.6, I 3.74, C 3.67, D 4.12, F 4.46
R22: Y 3.24, L 4.01, C 3.26, Q 4.29, A 4.01, V 3.12, M 3.29, H 4.39, G 3.98, F 3.18, S 4.01, W 2.57, N 4.55, P 4.29, D 4.42, I 3.67, K 4.37, T 4.28
S17: M 3.2, R 3.23, C 3.79, I 3.54, Q 3.76, T 2.7, L 2.93, F 3.2, A 3.74, V 3.45, P 3.31, H 2.95, N 2.99, Y 2.8, K 3.43, E 3.77, D 3.22, G 3.15, W 2.29
D20: K 2.47, T 3.55, N 3.2, Q 2.04, A 2.14, P 4.21, C 2.01, I 2.41, V 2.03, G 3.07, H 2.51, W 1.92, E 2.89, F 2.37, S 2.78, M 2.96, Y 2.07, L 2.63
Y21: N 3.64, E 3.37, D 4.07, C 3.13, W 3.28, M 2.17, L 2.37, R 1.77, A 3.77, T 2.35, G 3.37, V 3.27, H 3.15, Q 2.2, K 3.66, I 2.47, S 1.08, F 2.52, P 5.12
I10: P 4.38, E 3.45, S 3.68, R 4.3, A 4.13, D 4.05, M 3.32, Q 4.47, V 3.67, N 4.38, T 3.89, G 4.32, Y 3, F 2.32, H 4.15, W 1.96, K 4.87, L 3.12, C 3.79
Y16: K 2.48, I 3.8, S 3.02, W 2.19, V 3.26, M 2.71, P 3.6, H 3.27, G 3.59, E 4.12, A 2.85, Q 3.14, L 3.22, N 3.34, R 2.22, C 3.55, T 3.78, F 3.41, D 3.65
K14: T 2.89, R 3.09, Q 3.1, H 2.32, V 2.94, E 3.24, S 3.49, D 3.31, C 2.55, F 1.99, L 2.77, N 3.22, M 2.9, P 3, I 2.63, W 1.7, Y 2.32, A 2.62, G 2.69
N13: W 2.38, Q 2.63, M 2.56, L 2.47, T 2.97, P 2.54, E 2.82, G 2.61, C 2.25, A 2.14, Y 1.79, H 3, V 2.59, F 2.68, R 3.1, S 2.59, I 2.51
K19: E 4.45, H 3.9, Y 2.45, M 3.75, C 3.2, A 3.55, F 2.66, W 2.8, S 3.92, L 3.58, R 2.89, P 4.09, N 4.06, Q 3.87, V 3.82, I 3.3, G 3.84, T 4.16, D 4.08
L11: Q 4.91, G 4.19, E 4.69, Y 3.4, S 4.36, A 3.9, C 3.86, F 3.07, D 4.72, M 4.04, V 3.69, R 4.13, H 4.46, K 4.03, T 4.27, I 3.42, N 4, W 2.63, P 4.19
I7: Y 4.53, T 4.7
P15: F 2.32, H 2.63, N 3.39, I 3.18, R 2.98, D 3.27, S 3.42, V 2.71, L 2.84, M 3.28, T 3.33, E 3.18, A 3.54, Q 2.8, C 3.14, K 3.36, W 2.44, G 3.36, Y 2.63
D8: R 2.84, P 2.77, T 2.25, V 2.57, S 2.45, A 2.06, Y 2.14, C 1.59, E 2.16, Q 3.06, K 2.07, H 2.06, G 2.41, N 2.69
K18: Y 2.24, R 2.94, Q 2.76, E 3.16, W 3.39, D 2.7, S 2.69, N 3.1, G 2.61, M 1.27, C 2.08, L 2.12, A 2.33, P 2.03, T 2.56, F 2.32, I 2.11, V 2.59, H 2.48
S9: M 2.2, N 2.94, D 2.89, Q 3.19, T 3.41, P 3.81, W 2.9, G 3.66, F 1.75, I 2.08, Y 2.24, V 2.53, K 3.54, H 2.8, A 2.48, L 2.38, R 2.58, E 3.66
G12: V 2.76, T 3.24, Q 3.16, Y 2.97, R 2.73, D 3.81, L 2.8, E 3.69, C 2.82, I 2.62, P 3.86, M 3.77, K 3.38, A 2.61, W 2.6, F 4.21, N 3.18, S 3.51
